The target in data set [1] is T1, P. hybrida glypS (wt) EPSPS (Petunia hybrida, glyphosate sensitive, wild type) (Petunia hybrida, UniProt P11043).
T1 sequence (P11043 73-516): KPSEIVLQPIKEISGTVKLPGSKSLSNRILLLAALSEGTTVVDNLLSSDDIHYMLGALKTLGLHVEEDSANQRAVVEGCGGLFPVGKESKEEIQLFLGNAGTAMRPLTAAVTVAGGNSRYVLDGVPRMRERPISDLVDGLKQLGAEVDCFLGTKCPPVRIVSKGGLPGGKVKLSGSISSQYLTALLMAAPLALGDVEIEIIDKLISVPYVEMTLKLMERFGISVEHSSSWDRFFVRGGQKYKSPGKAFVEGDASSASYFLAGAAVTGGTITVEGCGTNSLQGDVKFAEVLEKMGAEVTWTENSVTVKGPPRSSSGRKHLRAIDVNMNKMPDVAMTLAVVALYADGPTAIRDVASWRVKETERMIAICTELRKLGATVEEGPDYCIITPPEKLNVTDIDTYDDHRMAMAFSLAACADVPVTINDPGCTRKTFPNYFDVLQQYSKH
As to the kind of experiment: kinetic characterization of EPSP synthase (Table 4). The format is biochemical. The following applies: read-out: apparent Km for PEP; saturating shikimate-3-phosphate. The protocol:
Final sample volumes are approximately 0.5 ml.

Substrate in data set [2]: C=C(OP(=O)(O)O)C(=O)O
The description is as above. The conditions noted are these: other: saturating shikimate-3-phosphate; 25.0 °C. The format is biochemical, Petunia hybrida.

Substrate in data set [3]: C=C(OP(=O)(O)O)C(=O)O
Description: cells, lysate or membranes named. The following applies: other: saturating shikimate-3-phosphate; 25.0 °C.

Substrate in data set [4]: C=C(OP(=O)(O)O)C(=O)O
As to the kind of experiment: purified protein, by the assay type. The conditions noted are these: other: saturating shikimate-3-phosphate; 25.0 °C.

By Km is commonly meant the substrate concentration at which the rate is half of its maximum.

On to `C=C(OP(=O)(O)O)C(=O)O` [PEP, phosphoenolpyruvate], for which, in data set [1], the Michaelis-Menten constant (Km) stood at 5 µM.

B1: P. hybrida EPSPS variant glypR (Pro-Ser) (Petunia x hybrida; P178S) (protein)
chain: KPSEIVLQPIKEISGTVKLPGSKSLSNRILLLAALSEGTTVVDNLLSSDDIHYMLGALKTLGLHVEEDSANQRAVVEGCGGLFPVGKESKEEIQLFLGNAGTAMRSLTAAVTVAGGNSRYVLDGVPRMRERPISDLVDGLKQLGAEVDCFLGTKCPPVRIVSKGGLPGGKVKLSGSISSQYLTALLMAAPLALGDVEIEIIDKLISVPYVEMTLKLMERFGISVEHSSSWDRFFVRGGQKYKSPGKAFVEGDASSASYFLAGAAVTGGTITVEGCGTNSLQGDVKFAEVLEKMGAEVTWTENSVTVKGPPRSSSGRKHLRAIDVNMNKMPDVAMTLAVVALYADGPTAIRDVASWRVKETERMIAICTELRKLGATVEEGPDYCIITPPEKLNVTDIDTYDDHRMAMAFSLAACADVPVTINDPGCTRKTFPNYFDVLQQYSKH
B1: the Michaelis constant (Km) in data set [2] is 44 µM.

B2: P. hybrida EPSPS variant glypR (Gly-Ala) (Petunia x hybrida; G173A) (protein)
chain: KPSEIVLQPIKEISGTVKLPGSKSLSNRILLLAALSEGTTVVDNLLSSDDIHYMLGALKTLGLHVEEDSANQRAVVEGCGGLFPVGKESKEEIQLFLGNAATAMRPLTAAVTVAGGNSRYVLDGVPRMRERPISDLVDGLKQLGAEVDCFLGTKCPPVRIVSKGGLPGGKVKLSGSISSQYLTALLMAAPLALGDVEIEIIDKLISVPYVEMTLKLMERFGISVEHSSSWDRFFVRGGQKYKSPGKAFVEGDASSASYFLAGAAVTGGTITVEGCGTNSLQGDVKFAEVLEKMGAEVTWTENSVTVKGPPRSSSGRKHLRAIDVNMNKMPDVAMTLAVVALYADGPTAIRDVASWRVKETERMIAICTELRKLGATVEEGPDYCIITPPEKLNVTDIDTYDDHRMAMAFSLAACADVPVTINDPGCTRKTFPNYFDVLQQYSKH
For the molecule B2, in data set [2], the Michaelis-Menten constant (Km) amounted to 200 µM.

B3: P. hybrida EPSPS variant glypR (Gly-Ala, Pro-Ser) (Petunia x hybrida; G173A/P178S) (protein)
chain: KPSEIVLQPIKEISGTVKLPGSKSLSNRILLLAALSEGTTVVDNLLSSDDIHYMLGALKTLGLHVEEDSANQRAVVEGCGGLFPVGKESKEEIQLFLGNAATAMRSLTAAVTVAGGNSRYVLDGVPRMRERPISDLVDGLKQLGAEVDCFLGTKCPPVRIVSKGGLPGGKVKLSGSISSQYLTALLMAAPLALGDVEIEIIDKLISVPYVEMTLKLMERFGISVEHSSSWDRFFVRGGQKYKSPGKAFVEGDASSASYFLAGAAVTGGTITVEGCGTNSLQGDVKFAEVLEKMGAEVTWTENSVTVKGPPRSSSGRKHLRAIDVNMNKMPDVAMTLAVVALYADGPTAIRDVASWRVKETERMIAICTELRKLGATVEEGPDYCIITPPEKLNVTDIDTYDDHRMAMAFSLAACADVPVTINDPGCTRKTFPNYFDVLQQYSKH
For the molecule B3, the Km in data set [2] came out at 340 µM.

B4: Z. mays glypS (wt) EPSPS (Zea mays, glyphosate sensitive, wild type) (Zea mays) (protein)
chain: AGAEEIVLQPIKEISGTVKLPGSKSLSNRILLLAALSEGTTVVDNLLNSEDVHYMLGALRTLGLSVEADKAAKRAVVVGCGGKFPVEDSKEEVQLFLGNAGTAMRPLTAAVTAAGGNATYVLDGVPRMRERPIGDLVVGLKQLGADVDCFLGTDCPPVRVNGIGGLPGGKVKLSGSISSQYLSALLMAAPLALGDVEIEIIDKLISIPYVEMTLRLMERFGVKAEHSDSWDRFYIKGGQKYKSPKNAYVEGDASSASYFLAGAAITGGTVTVEGCGTTSLQGDVKFAEVLEMMGAKVTWTETSVTVTGPPREPFGRKHLKAIDVNMNKMPDVAMTLAVVALFADGPTAIRDVASWRVKETERMVAIRTELTKLGASVEEGPDYCIITPPEKLNVTAIDTYDDHRMAMAFSLAACAEVPVTIRDPGCTRKTFPDYFDVLSTFVKN
For B4, the Km in data set [3] was 5 µM.

B5: E. indica glypS EPSPS (Eleusine indica, naturally occurring glyphosate sensitive, wild type) (Eleusine indica) (protein)
chain: AGAEEVVLQPIKEISGVVKLPGSKSLSNRILLLSALAEGTTVVDNLLNSEDVHYMLGALKTLGLSVEADKAAKRAVVVGCGGKFPVEKDAKEEVQLFLGNAGTAMRPLTAAVTAAGGNATYVLDGVPRMRERPIGDLVVGLKQLGADVDCFLGTDCPPVRVKGIGGLPGGKVKLSGSISSQYLSALLMAAPLALGDVEIEIIDKLISIPYVEMTLRLMERFGVKAEHSDSWDRFYIKGGQKYKSPKNAYVEGDASSASYFLAGAAITGGTVTVEGCGTTSLQGDVKFAEVLEMMGAKVTWTETSVTVTGPQREPFGRKHLKAIDVNMNKMPDVAMTLAVVALFADGPTAIRDVASWRVKETERMVAIRTELTKLGASVEEGPDYCIITPPEKLNVTAIDTYDDHRMAMAFSLAACADVPVTIRDPGCTRKTFPDYFDVLSTFVKN
With B5, the Km in data set [4] worked out at 5 µM.

B6: E. indica glypR (Pro-Ser) EPSPS (Eleusine indica, naturally occurring glyphosate resistant, serine for proline at position 107, SEQ ID NO:7) (Eleusine indica) (protein)
chain: AGAEEVVLQPIKEISGVVKLPGSKSLSNRILLLSALAEGTTVVDNLLNSEDVHYMLGALKTLGLSVEADKAAKRAVVVGCGGKFPVEKDAKEEVQLFLGNAGTAMRSLTAAVTAAGGNATYVLDGVPRMRERPIGDLVVGLKQLGADVDCFLGTDCPPVRVKGIGGLPGGKVKLSGSISSQYLSALLMAAPLALGDVEIEIIDKLISIPYVEMTLRLMERFGVKAEHSDSWDRFYIKGGQKYKSPKNAYVEGDASSASYFLAGAAITGGTVTVEGCGTTSLQGDVKFAEVLEMMGAKVTWTETSVTVTGPQREPFGRKHLKAIDVNMNKMPDVAMTLAVVALFADGPTAIRDVASWRVKETERMVAIRTELTKLGASVEEGLDYCIITPPEKLNVTAIDTYDDHRMAMAFSLAACADVPVTIRDPGCTRKTFPDYFDVLSTFVKN
On to B6, for which, in data set [4], the Michaelis-Menten constant (Km) worked out at 7 µM.

These data come from patent publication US6803501B2 (Monsanto Technology, LLC, priority 2000, dated 2004).
